Assay results reported in patent US20210388087A1 (Chugai, published 2021).
Residue numbers refer to the chain shown, from its start.

B1: CE115HA000 H35S (antibody, human IgG1, kappa, L234A L235A, N297A, name in Kabat numbering)
heavy: QVQLVESGGGVVQPGRSLRLSCAASGFTFSNAWMSWVRQAPGKGLEWVAQIKAKSNNYATYYAESVKGRFTISRDDSKNSLYLQMNSLKTEDTAVYYCRYVHYGAYYGVDAWGQGTTVTVSSASTKGPSVFPLAPSSKSTSGGTAALGCLVKDYFPEPVTVSWNSGALTSGVHTFPAVLQSSGLYSLSSVVTVPSSSLGTQTYICNVNHKPSNTKVDKKVEPKSCDKTHTCPPCPAPEAAGGPSVFLFPPKPKDTLMISRTPEVTCVVVDVSHEDPEVKFNWYVDGVEVHNAKTKPREEQYASTYRVVSVLTVLHQDWLNGKEYKCKVSNKALPAPIEKTISKAKGQPREPQVYTLPPSRCELTKNQVSLSCAVKGFYPSDIAVEWESNGQPENNYKTTPPVLDSDGSFFLVSKLTVDKSRWQQGNVFSCSVMHEALHNHYTQKSLSLSPDYKDDDDK
chain: EPKSSDKTHTCPPCPAPELLGGPSVFLFPPKPKDTLMISRTPEVTCVVVDVSHEDPEVKFNWYVDGVEVHNAKTKPREEQYNSTYRVVSVLTVLHQDWLNGKEYKCKVSNKALPAPIEKTISKAKGQPREPQVCTLPPSRDELTKNQVSLWCLVKGFYPSDIAVEWESNGQPENNYKTTPPVLDSDGSFFLYSKLTVDKSRWQQGNVFSCSVMHEALHNRYTQKSLSLSP
light: DIVMTQSPLSLPVTPGEPASISCRSSQSLVHSNRNTYLHWYQQKPGQAPRLLIYKVSNRFSGVPDRFSGSGSGTDFTLKISRVEAEDVGVYYCGQGTQVPYTFGQGTKLEIKRTVAAPSVFIFPPSDEQLKSGTASVVCLLNNFYPREAKVQWKVDNALQSGNSQESVTEQDSKDSTYSLSSTLTLSKADYEKHKVYACEVTHQGLSSPVTKSFNRGEC
notes: one-arm antibody
B2: CE115HA000 H35T (antibody, human IgG1, kappa, L234A L235A, N297A, name in Kabat numbering)
heavy: B1 heavy with S35T
chain: B1 chain
light: B1 light
notes: one-arm antibody
B3: CE115HA000 H35V (antibody, human IgG1, kappa, L234A L235A, N297A, name in Kabat numbering)
heavy: B1 heavy with S35V
chain: B1 chain
light: B1 light
notes: one-arm antibody
B4: CE115HA000 H35W (antibody, human IgG1, kappa, L234A L235A, N297A, name in Kabat numbering)
heavy: B1 heavy with S35W
chain: B1 chain
light: B1 light
notes: one-arm antibody
B5: CE115HA000 H35Y (antibody, human IgG1, kappa, L234A L235A, N297A, name in Kabat numbering)
heavy: B1 heavy with S35Y
chain: B1 chain
light: B1 light
notes: one-arm antibody
B6: CE115HA000 H96G (antibody, human IgG1, kappa, L234A L235A, N297A, name in Kabat numbering)
heavy: B1 heavy with S35H, H102G
chain: B1 chain
light: B1 light
notes: one-arm antibody
B7: CE115HA000 H96K (antibody, human IgG1, kappa, L234A L235A, N297A, name in Kabat numbering)
heavy: B1 heavy with S35H, H102K
chain: B1 chain
light: B1 light
notes: one-arm antibody
B8: CE115HA000 H96L (antibody, human IgG1, kappa, L234A L235A, N297A, name in Kabat numbering)
heavy: B1 heavy with S35H, H102L
chain: B1 chain
light: B1 light
notes: one-arm antibody
B9: CE115HA000 H96P (antibody, human IgG1, kappa, L234A L235A, N297A, name in Kabat numbering)
heavy: B1 heavy with S35H, H102P
chain: B1 chain
light: B1 light
notes: one-arm antibody
B10: CE115HA000 H96Q (antibody, human IgG1, kappa, L234A L235A, N297A, name in Kabat numbering)
heavy: B1 heavy with S35H, H102Q
chain: B1 chain
light: B1 light
notes: one-arm antibody
B11: CE115HA000 H96R (antibody, human IgG1, kappa, L234A L235A, N297A, name in Kabat numbering)
heavy: B1 heavy with S35H, H102R
chain: B1 chain
light: B1 light
notes: one-arm antibody
B12: CE115HA000 H96S (antibody, human IgG1, kappa, L234A L235A, N297A, name in Kabat numbering)
heavy: B1 heavy with S35H, H102S
chain: B1 chain
light: B1 light
notes: one-arm antibody
B13: CE115HA000 H96Y (antibody, human IgG1, kappa, L234A L235A, N297A, name in Kabat numbering)
heavy: B1 heavy with S35H, H102Y
chain: B1 chain
light: B1 light
notes: one-arm antibody
B14: CE115HA000 I51D (antibody, human IgG1, kappa, L234A L235A, N297A, name in Kabat numbering)
heavy: B1 heavy with S35H, I51D
chain: B1 chain
light: B1 light
notes: one-arm antibody
B15: CE115HA000 I51E (antibody, human IgG1, kappa, L234A L235A, N297A, name in Kabat numbering)
heavy: B1 heavy with S35H, I51E
chain: B1 chain
light: B1 light
notes: one-arm antibody
B16: CE115HA000 K43E (antibody, human IgG1, kappa, L234A L235A, N297A, name in Kabat numbering)
heavy: B1 heavy with S35H, K43E
chain: B1 chain
light: B1 light
notes: one-arm antibody
B17: CE115HA000 K43Q (antibody, human IgG1, kappa, L234A L235A, N297A, name in Kabat numbering)
heavy: B1 heavy with S35H, K43Q
chain: B1 chain
light: B1 light
notes: one-arm antibody
B18: CE115HA000 K52D (antibody, human IgG1, kappa, L234A L235A, N297A, name in Kabat numbering)
heavy: B1 heavy with S35H, K52D
chain: B1 chain
light: B1 light
notes: one-arm antibody
B19: CE115HA000 K52E (antibody, human IgG1, kappa, L234A L235A, N297A, name in Kabat numbering)
heavy: B1 heavy with S35H, K52E
chain: B1 chain
light: B1 light
notes: one-arm antibody
B20: CE115HA000 K52F (antibody, human IgG1, kappa, L234A L235A, N297A, name in Kabat numbering)
heavy: B1 heavy with S35H, K52F
chain: B1 chain
light: B1 light
notes: one-arm antibody
B21: CE115HA000 K52H (antibody, human IgG1, kappa, L234A L235A, N297A, name in Kabat numbering)
heavy: B1 heavy with S35H, K52H
chain: B1 chain
light: B1 light
notes: one-arm antibody
B22: CE115HA000 K52I (antibody, human IgG1, kappa, L234A L235A, N297A, name in Kabat numbering)
heavy: B1 heavy with S35H, K52I
chain: B1 chain
light: B1 light
notes: one-arm antibody
B23: CE115HA000 K52N (antibody, human IgG1, kappa, L234A L235A, N297A, name in Kabat numbering)
heavy: B1 heavy with S35H, K52N
chain: B1 chain
light: B1 light
notes: one-arm antibody
B24: CE115HA000 K52R (antibody, human IgG1, kappa, L234A L235A, N297A, name in Kabat numbering)
heavy: B1 heavy with S35H, K52R
chain: B1 chain
light: B1 light
notes: one-arm antibody
B25: CE115HA000 K52S (antibody, human IgG1, kappa, L234A L235A, N297A, name in Kabat numbering)
heavy: B1 heavy with S35H, K52S
chain: B1 chain
light: B1 light
notes: one-arm antibody
B26: CE115HA000 K52W (antibody, human IgG1, kappa, L234A L235A, N297A, name in Kabat numbering)
heavy: B1 heavy with S35H, K52W
chain: B1 chain
light: B1 light
notes: one-arm antibody
B27: CE115HA000 K52Y (antibody, human IgG1, kappa, L234A L235A, N297A, name in Kabat numbering)
heavy: B1 heavy with S35H, K52Y
chain: B1 chain
light: B1 light
notes: one-arm antibody
B28: CE115HA000 K52bA (antibody, human IgG1, kappa, L234A L235A, N297A, name in Kabat numbering)
heavy: B1 heavy with S35H, K54A
chain: B1 chain
light: B1 light
notes: one-arm antibody
B29: CE115HA000 K52bD (antibody, human IgG1, kappa, L234A L235A, N297A, name in Kabat numbering)
heavy: B1 heavy with S35H, K54D
chain: B1 chain
light: B1 light
notes: one-arm antibody
B30: CE115HA000 K52bL (antibody, human IgG1, kappa, L234A L235A, N297A, name in Kabat numbering)
heavy: B1 heavy with S35H, K54L
chain: B1 chain
light: B1 light
notes: one-arm antibody
B31: CE115HA000 K52bN (antibody, human IgG1, kappa, L234A L235A, N297A, name in Kabat numbering)
heavy: B1 heavy with S35H, K54N
chain: B1 chain
light: B1 light
notes: one-arm antibody
B32: CE115HA000 K52bQ (antibody, human IgG1, kappa, L234A L235A, N297A, name in Kabat numbering)
heavy: B1 heavy with S35H, K54Q
chain: B1 chain
light: B1 light
notes: one-arm antibody
B33: CE115HA000 K52bR (antibody, human IgG1, kappa, L234A L235A, N297A, name in Kabat numbering)
heavy: B1 heavy with S35H, K54R
chain: B1 chain
light: B1 light
notes: one-arm antibody

molecular target: T1, CD3 epsilon homodimer protein (UniProt P07766 23-126); assay: SPR, CD3 epsilon homodimer on chip, one-arm antibody as analyte;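 also: surface plasmon resonance at 25 °C with CD3 epsilon homodimer amine-coupled to a CM4 sensor chip, antibody injected as analyte, HBS-EP+ as running buffer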
T1 construct: also called CD3 (CD3 epsilon)
T1 sequence (P07766 23-126): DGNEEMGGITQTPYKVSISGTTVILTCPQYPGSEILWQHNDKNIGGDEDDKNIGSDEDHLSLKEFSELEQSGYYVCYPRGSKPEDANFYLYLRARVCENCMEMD

| Binder | KD ratio (KD of CE115HA000/KD of altered form) |
| --- | --- |
| B1 | 2.93 |
| B2 | 4.4 |
| B3 | 28.1 |
| B4 | 50.4 |
| B5 | 119000 |
| B6 | 0.8 |
| B7 | 1.56 |
| B8 | 3.14 |
| B9 | 87000 |
| B10 | 1.36 |
| B11 | 1.59 |
| B12 | 1.15 |
| B13 | 6.67 |
| B14 | 6.37 |
| B15 | 0.54 |
| B16 | 0.88 |
| B17 | 0.89 |

| Binder | KD ratio (KD of CE115HA000/KD of altered form) |
| --- | --- |
| B18 | 166 |
| B19 | 19.4 |
| B20 | 4.04 |
| B21 | 2.65 |
| B22 | 3.54 |
| B23 | 3.29 |
| B24 | 0.8 |
| B25 | 92.1 |
| B26 | 2.69 |
| B27 | 6.47 |
| B28 | 0.58 |
| B29 | 0.56 |
| B30 | 0.61 |
| B31 | 0.43 |
| B32 | 0.62 |
| B33 | 0.91 |
